Molecular target: T1, FhuA (E. coli, UniProt P06971 34-747)
T1 construct: also called FhuA receptor; FhuA transporter
T1 sequence (looked up): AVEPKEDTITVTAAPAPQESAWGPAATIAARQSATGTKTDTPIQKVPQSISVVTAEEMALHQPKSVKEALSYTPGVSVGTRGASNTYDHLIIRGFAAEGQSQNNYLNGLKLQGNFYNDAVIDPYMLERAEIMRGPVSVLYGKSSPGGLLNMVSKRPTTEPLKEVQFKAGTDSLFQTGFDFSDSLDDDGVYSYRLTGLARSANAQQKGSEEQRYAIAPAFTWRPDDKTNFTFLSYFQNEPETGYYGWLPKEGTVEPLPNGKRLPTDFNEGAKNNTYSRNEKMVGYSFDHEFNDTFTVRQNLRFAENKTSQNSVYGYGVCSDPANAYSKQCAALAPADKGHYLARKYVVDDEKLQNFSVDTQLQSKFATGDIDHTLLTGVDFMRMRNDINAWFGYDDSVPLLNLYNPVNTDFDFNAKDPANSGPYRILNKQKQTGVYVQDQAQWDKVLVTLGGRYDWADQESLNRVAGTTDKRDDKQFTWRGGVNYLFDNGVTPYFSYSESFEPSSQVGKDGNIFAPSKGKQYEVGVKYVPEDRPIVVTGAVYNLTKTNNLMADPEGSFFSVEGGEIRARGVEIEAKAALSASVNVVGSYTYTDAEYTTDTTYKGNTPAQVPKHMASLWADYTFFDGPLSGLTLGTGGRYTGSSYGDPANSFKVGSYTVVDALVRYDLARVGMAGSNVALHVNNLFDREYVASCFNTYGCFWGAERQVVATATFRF
Assay: CN-PAGE band shift, Coomassie: about 2 µg FhuA in MSPL156 nanodisc with 5 µg colicin M, 5 min at room temperature, without and with ferricrocin

B1: Colicin M (other)
chain: METLTVHAPSPSTNLPSYGNGAFSLSAPHVPGAGPLLVQVVYSFFQSPNMCLQALTQLEDYIKKHGASNPLTLQIISTNIGYFCNADRNLVLHPGISVYDAYHFAKPAPSQYDYRSMNMKQMSGNVTTPIVALAHYLWGNGAERSVNIANIGLKISPMKINQIKDIIKSGVVGTFPVSTKFTHATGDYNVITGAYLGNITLKTEGTLTISANGSWTYNGVVRSYDDKYDFNASTHRGIIGESLTRLGAMFSGKEYQILLPGEIHIKESGKR
notes: also called ColM; His-tagged Colicin M
B1: binds.
